We go through 1 substance from doi:10.1101/2023.02.07.527441.

By stoichiometry N is commonly meant a count of units in the complex or per binding partner.

The test concerns the target PmScsC-EcDsbA chimera (Proteus mirabilis | E. coli) (UniProt P0AEG4). Kind of test: AUC.

The substance “PmScsC-EcDsbA chimera (from UniProt P0AEG4 20-208) (enzyme)” had a stoichiometry N of 3.
